Measured values reported in PMC10932109, “Solution Structures of Two Different FRP-OCP Complexes as Revealed via SEC-SANS” (International Journal of Molecular Sciences, 2024).
“And” between values parts separate entries of the source, which are not always exact repeats. Identical values can stand only once.

Tests used:
[1] = target: OCPR (Synechocystis sp. PCC 6803) (UniProt P74102); details: cited from earlier work
[2] = target: OCPO (Synechocystis sp. PCC 6803) (UniProt P74102); details: cited from earlier work
[3] = target: the molecule itself; test: SEC + other: SANS; in-line SEC-SANS at D22 (ILL); Superdex 200 Increase 10/300 GL; 25 °C; 250 µL injected at about 5 mg/mL total protein; two fractions (high MW, low MW) analysed separately; stoichiometries assigned from dimensions, DAMMIF shapes and Pepsi-SANS FlexFit models
[4] = target: T1, orange carotenoid protein lacking the N-terminal extension (^∆NTEOCP^O) (Synechocystis sp. PCC 6803, UniProt P74102 13-317); test: as above; details: both partners purified
T1 construct: glycine left from the human rhinovirus 3C protease site (LEVLFQ/GP) after cleavage; the P of GP is read as Pro13 of OCP; Orange carotenoid protein (OCP), Synechocystis sp; PCC 6803, slr1963, from Pro13 (P-NTLAA...) to the C-terminus; the N-terminal extension is removed with the His-tag by 3C cleavage; Gene optimised for E. coli, vector pRSFDuet-1; also called ^ΔNTEOCP^O; compact mutant of OCP …
T1 sequence: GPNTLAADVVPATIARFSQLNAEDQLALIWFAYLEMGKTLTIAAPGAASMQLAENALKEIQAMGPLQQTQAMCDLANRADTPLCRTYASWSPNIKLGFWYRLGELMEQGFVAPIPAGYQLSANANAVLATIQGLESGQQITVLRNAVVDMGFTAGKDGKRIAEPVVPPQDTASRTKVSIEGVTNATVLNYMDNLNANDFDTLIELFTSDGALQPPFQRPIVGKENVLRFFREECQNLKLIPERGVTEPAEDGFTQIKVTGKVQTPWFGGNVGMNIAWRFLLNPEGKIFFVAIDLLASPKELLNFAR

FRP (from UniProt P74103)
Kd [1]: 3 µM
Kd [2]: 35 µM

B1: fluorescence recovery protein (FRP), wild type (natural protein, Synechocystis sp. PCC 6803)
chain: LQTAEAPWSQAETQSAHALFRKAYQRELDGLLATVQAQASQITQIDDLWKLHDFLSAKRHEIDGKYDDRQSVIIFVFAQLLKEGLVQAEELTFLAADKQSKIKALARL
notes: Fluorescence recovery protein (FRP), Synechocystis sp; PCC 6803, slr1964, wild type; also called wild-type FRP; dimeric FRP; source: E. coli, purified (Superdex 200 Increase 10/300, phosphate-buffered saline)
binding result [3]: binds
stoichiometry N [4]: 2 FRP per ^∆NTEOCP^O (2:1 complex, low MW fraction) and 1 FRP per ^∆NTEOCP^O (2:2 complex, high MW fraction)
